Test results: patent publication US20200239586A1 (LA TROBE UNIVERSITY, published 2020)

Legend:
[1] = biological target: T1, Histidine tagged mouse Fn14 extracellular domain (mouse, UniProt Q9CR75 28-80); assay: ELISA with purified His-tagged mouse Fn14; x axis 'Log (c)' without unit, µg/ml by the legend
T1 construct: extracellular domain; also called mFn14; not shown: (His)6 tag from pET-15b
T1 sequence (looked up): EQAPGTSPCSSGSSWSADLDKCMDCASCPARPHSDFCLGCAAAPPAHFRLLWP

[2] = biological target: phage expressed hFn14 mutant H60A (human, UniProt Q9NP84 28-77); assay: phage ELISA (Method 2): antibody coated on the plate, 10-fold dilutions of phage displaying hFn14 H60A; biotin anti-M13 antibody, streptavidin-HRP, TMB, OD 450 nm; x axis = dilution of phage
Description: (§1) ELISAs showing the reactivity of mutant H60A and H60K hFn14 phage constructs with the anti-Fn14 monoclonal antibodies CRCBT-06-001, CRCBT-06-002, CRCBT-06-004 compared to ITEM-1 and ITEM-4. ITEM-2 was assessed on H60K. Binding was detected using Biotin-conjugated anti-M13-phage monoclonal antibody followed by HRP-conjugated Streptavidin and TMB substrate. Optical density at 450 nm was quantified using a Spectramax spectrophotometer. Error bars for each dilution represent the standard deviation of duplicate assays. X axis=dilution of phage. Methods according to Epitope mapping using phage expressed Fn14—Method 2.
(§2) The wells of Maxisorp immunoplates (Nunc) were coated overnight at 4° C. with the target monoclonal antibodies or recombinant Tweak-Fc at a concentration of 1.5 μg/ml in PBS. mAb 5G8 was used as a negative control for ELISA plates coated with tested antibodies. […] 10-fold serial dilutions of phage were made using PBS solution and phage dilutions were added to the coated, blocked ELISA plates for 1 hour, shaking at room temperature. Phage was subsequently removed from the wells and the ELISA plates were washed three times with PBS/0.05% Tween 20.
(§3) Method A: HRP-conjugated anti-M13-phage antibody (GE Healthcare) at a 1/5000 dilution in PBS was then added to the wells of the ELISA plates for 1 hour, shaking at room temperature. […]

[3] = biological target: phage expressed hFn14 mutant D51A (human, UniProt Q9NP84 28-77); assay: phage ELISA (Method 2): antibody coated on the plate, 10-fold dilutions of phage displaying hFn14 D51A; biotin anti-M13 antibody, streptavidin-HRP, TMB, OD 450 nm; x axis = dilution of phage
Excerpt: as §1, with “mutant” for “mutant H60A and H60K”, “ITEM-4.” for “ITEM-4. ITEM-2 was assessed on H60K.”, “assays. FIG. 28A L46A, FIG. 28B D51A and FIG. 28C D62A. In all cases error bars represent the standard deviation.” for “assays.”
as §2, with “Phage was subsequently removed from the wells and the ELISA plates were washed three times with PBS/0.05% Tween 20.” left out
Method A: HRP-conjugated anti-M13-phage antibody (GE Healthcare) at a 1/5000 dilution in PBS was then added to the wells of the ELISA plates for 1 hour, shaking at room temperature. […] Optical density at 450 nm was quantified using a Spectramax absorbance spectrophotometer.

[4] = biological target: phage expressed hFn14 mutant F63A (human, UniProt Q9NP84 28-77); assay: phage ELISA (Method 2): antibody coated on the plate, 10-fold dilutions of phage displaying hFn14 F63A; HRP-conjugated anti-M13 phage polyclonal IgG, TMB, OD 450 nm; x axis = dilution of phage
Excerpt: For mutants P59A and F63A, binding was detected using HRP-conjugated anti-M13-phage polyclonal IgG and TMB substrate. For all other mutants binding was detected using Biotin-conjugated anti-M13-phage monoclonal antibody followed by HRP-conjugated Streptavidin and TMB substrate. Optical density at 450 nm was quantified using a Spectramax spectrophotometer. Error bars for each dilution represent the standard deviation of duplicate assays. FIG. 27A wild type Fn14, FIG. 27B W42A, FIG. 27C S54A, FIG. 27D A57G, FIG. 27E P59A, FIG. 27F S61A, FIG. 27G F63A, FIG. 27H L65A. In all cases error bars represent the standard deviation. X axis=dilution of phage. Methods according to Epitope mapping using phage expressed Fn14—Method 2
as §2, with “20. […]” for “20.”

[5] = biological target: phage expressed hFn14 mutant H60K (human, UniProt Q9NP84 28-77); assay: phage ELISA (Method 2): antibody coated on the plate, 10-fold dilutions of phage displaying hFn14 H60K; biotin anti-M13 antibody, streptavidin-HRP, TMB, OD 450 nm; x axis = dilution of phage
Description: as §1, §2, §3

[6] = biological target: T2, synthetic peptide Sub-domain 2 Cys 4&5 ΔS (human, not fully specified; biotin on the added C-terminal lysine); assay: peptide ELISA: biotinylated synthetic peptide on neutravidin plate, antibody titrated (legend: 1-0.0001 µg/ml; axis 'Log (c)'), anti-mouse HRP, TMB, OD 450 nm
T2 construct: also called sub-domain 2 cys4&5ΔS mutant
T2 peptide: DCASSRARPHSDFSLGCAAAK

Measured: binding result

phage expressed hFn14 mutant H60A, sequence (Q9NP84 28-77 H60A): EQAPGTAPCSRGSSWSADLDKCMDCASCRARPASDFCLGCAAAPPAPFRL
phage expressed hFn14 mutant H60K, sequence (Q9NP84 28-77 H60K): as the sequence (Q9NP84 28-77 H60A) above, with A33K counted along it
phage expressed hFn14 mutant D51A, sequence (Q9NP84 28-77 D51A): as the sequence (Q9NP84 28-77 H60A) above, with D24A, A33H counted along it

B1: CRCBT-06-001 (antibody, IgG2b, V domains shown)
VH: QVQLQQSGGGLVQPGGSMKLSCIASGFTFSSYWMSWVRQSPEKGLEWVAEIRSKSDNYATHYAESVKGKFTISRDDSKSRFFLQMNNLRAEDTGIYYCSSTYADYFHYWGQGTDLTVSS
VL: DIVMTQTPASLAVSLGQRATISCRASQSVSTSTYSYMHWYQQKPGQPPKLLIKYASSLESGVPARFSGSGSGTDFTLNIHPVEEDDTATYYCQHSWEIPYTFGGGTKLEIKR
binds: all assays above

B2: CRCBT-06-002 (antibody, IgG1, V domains shown)
VH: EVKLQQSGGGLVQPGGSMKLSCVASGFTFSYYWMNWVRQSPEQGLEWIAEIRLQSNDYPTHYAESVKGRFTISRDDSKNSVYLQMNNLRPEDTGIYYCACRYADYFDHWGQGTTLTVSS
VL: DTVLTQSPASLVVSLGQRATISCRASQSVSTSDYSYIHWYQQKPGQPPKFLIKYASNRDSGVPARFSGSGSGTDFTLNIHPVEEDDTAIYYCQHSWEIPPTFGAGTKLELQR
binds: all assays above
